Target: T1, prostate-specific membrane antigen (PSMA) (human, UniProt Q04609 44-750, limits assumed, 125I-labelled in Examples 2 and 8 (site of iodination not stated); unlabelled in Examples 5 and 6)
T1 construct: also called purified recombinant PSMA
Experiment: competition radioligand binding: 1 nM 125I-PSMA on plate-coated mimetope (SEQ ID NO:24), with 0 or 10 uM of the soluble peptide as competitor
Method: For a typical competition binding experiment, the mimetope is coated to a solid support such as a 96-well plate by allowing 100 ul of a 10 uM solution of the mimetope (SEQ ID NO:24) in water to dry in the wells. The wells are then washed with TBST and blocked with 3% casein in TBST to minimize non-specific binding. The wells are then incubated with 1 nM ¹²⁵I-PSMA at a specific activity of about 80 000 dpm/pmol, containing 0 or 10 uM of alanine-mimetope. The plate is incubated O/N at 4° C. then the wells are rapidly washed with TBST to remove the unbound ligand fraction, and then counted in a gamma counter. The radioactivity counted in each wells represents the bound fraction of the ligand. An alanine-mimetope that binds to PSMA will thus reduce the binding of ¹²⁵I-PSMA to the coated (SEQ ID NO:24).

T1 sequence (Q04609 44-750 limits assumed): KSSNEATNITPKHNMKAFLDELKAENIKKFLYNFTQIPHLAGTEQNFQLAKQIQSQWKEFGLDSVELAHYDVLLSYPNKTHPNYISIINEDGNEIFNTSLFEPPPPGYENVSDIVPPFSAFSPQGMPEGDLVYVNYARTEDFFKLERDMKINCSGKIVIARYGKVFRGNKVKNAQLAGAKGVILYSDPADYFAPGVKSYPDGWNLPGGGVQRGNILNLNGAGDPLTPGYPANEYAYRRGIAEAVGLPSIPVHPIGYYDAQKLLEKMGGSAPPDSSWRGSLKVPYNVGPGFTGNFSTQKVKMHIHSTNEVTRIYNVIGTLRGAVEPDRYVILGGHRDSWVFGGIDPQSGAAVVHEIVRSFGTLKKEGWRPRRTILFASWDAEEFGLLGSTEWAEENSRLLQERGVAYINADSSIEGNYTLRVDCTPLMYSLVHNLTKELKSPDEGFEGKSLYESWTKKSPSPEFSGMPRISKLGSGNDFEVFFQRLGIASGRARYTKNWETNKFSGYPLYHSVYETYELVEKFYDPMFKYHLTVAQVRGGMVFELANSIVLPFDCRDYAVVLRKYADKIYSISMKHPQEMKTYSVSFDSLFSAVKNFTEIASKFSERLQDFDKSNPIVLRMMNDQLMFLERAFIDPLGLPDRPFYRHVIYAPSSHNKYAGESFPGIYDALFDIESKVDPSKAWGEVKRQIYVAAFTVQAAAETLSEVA

| binding result | Binder |
| --- | --- |
| no binding (tested: 10 uM) | KQSYNFAT [PS69] |
| no binding (tested: 10 uM) | KQSYNAIT [PS68] |
